# B1: Gaussia luciferase (GLuc) (Gaussia princeps (in: crustaceans); M127L/M60L) (protein)
# chain: KPTENNEDFNIVAVASNFATTDLDADRGKLPGKKLPLEVLKELEANARKAGCTRGCLICLSHIKCTPKMKKFIPGRCHTYEGDKESAQGGIGEAIVDIPEIPGFKDLEPLEQFIAQVDLCVDCTTGCLKGLANVQCSDLLKKWLPQRCATFASKIQGQVDKIKGAGGD
# Substrate: Oc1ccc(Cc2nc3c(Cc4ccccc4)nc(-c4ccc(O)cc4)cn3c2O)cc1
# Experiment: luminescence, extrapolated peak intensity, Hill fit
# Assay type: biochemical, Gaussia princeps (in: crustaceans)
# Settings: free GLuc 0.05 µM, PBS, O2 as co-substrate, 0.1-30 µM CLZ
protein,measurement,value
B1,K0.5,"9.8 (95% CI [6.2 µM, 43.1 µM]) µM"

# — PMC12718255, “Quantitative assessment of porin-mediated solute transport in biomimetic membranes” (Applied Microbiology and Biotechnology, 2025)
